PMC9482650, “Quantitative fragmentomics allow affinity mapping of interactomes” (Nature Communications, 2022)
Residue numbers refer to the chain shown, from its start.

B1: PPP1R13L, Q8WUF5 (peptide)
chain: PRVKPQRSKV
B2: HPV59-E6, Q81964 (peptide)
chain: QRQARSETLV
B3: HPV35-E6, P27228 (peptide)
chain: SKPTRRETEV

What follows are binders tested against MAST2, Q6P0Q8 (assay: holdup assay). Settings: plain residues with an end cap or a label only (N-terminal biotin on a linker: ttds).
Chain of MAST2, Q6P0Q8 (Q6P0Q8 1099-1202): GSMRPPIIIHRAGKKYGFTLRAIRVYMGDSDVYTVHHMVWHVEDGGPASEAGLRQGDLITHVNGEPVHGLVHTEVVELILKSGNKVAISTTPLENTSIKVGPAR
Design: key: below the threshold = too weak to quantify, mostly under pKd 3.1 to 4
For B1, the pKd was 3.82.
Work on B2 yielded a pKd of 5.03.
With B3 the pKd was 5.09.

What follows are binders tested against T1, LIN7C, Q9NUP9 (assay: holdup assay). Settings: plain residues with an end cap or a label only (N-terminal biotin on a linker: ttds).
T1 sequence (Q9NUP9 88-185, limits assumed, looked up): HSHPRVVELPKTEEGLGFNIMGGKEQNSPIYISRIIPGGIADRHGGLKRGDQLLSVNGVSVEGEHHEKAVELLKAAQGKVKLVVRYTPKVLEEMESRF
Design: key: below the threshold = too weak to quantify, mostly under pKd 3.1 to 4
With B1 the pKd was “below the threshold”.
In the case of B2, the pKd is reported as 3.87.
With B3 the pKd was 3.76.

These binders were tested against GORASP1, Q9BQQ3 (assay: holdup assay). Settings: plain residues with an end cap or a label only (N-terminal biotin on a linker: ttds).
Chain of GORASP1, Q9BQQ3 (Q9BQQ3 1-208): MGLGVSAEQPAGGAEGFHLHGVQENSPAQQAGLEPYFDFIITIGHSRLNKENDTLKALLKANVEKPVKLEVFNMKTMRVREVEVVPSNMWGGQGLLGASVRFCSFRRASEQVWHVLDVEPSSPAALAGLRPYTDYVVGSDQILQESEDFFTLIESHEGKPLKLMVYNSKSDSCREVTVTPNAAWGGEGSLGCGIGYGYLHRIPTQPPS
Design: key: below the threshold = too weak to quantify, mostly under pKd 3.1 to 4
For B1, the pKd was “below the threshold”.
With B2 the pKd was “below the threshold”.
B3 was tested, and the pKd was “below the threshold”.

What follows are binders tested against NHERF2_2, Q15599 (assay: holdup assay). Settings: plain residues with an end cap or a label only (N-terminal biotin on a linker: ttds).
Chain of NHERF2_2, Q15599 (Q15599 142-238): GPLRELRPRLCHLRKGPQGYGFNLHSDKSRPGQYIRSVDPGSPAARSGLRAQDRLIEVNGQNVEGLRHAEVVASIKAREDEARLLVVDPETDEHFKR
Design: key: below the threshold = too weak to quantify, mostly under pKd 3.1 to 4
With B1 the pKd was “below the threshold”.
For B2, the pKd was “below the threshold”.
B3 was tested, and the pKd was “below the threshold”.

These binders were tested against PARD3_3, Q8TEW0 (assay: holdup assay). Settings: plain residues with an end cap or a label only (N-terminal biotin on a linker: ttds).
Chain of PARD3_3, Q8TEW0 (Q8TEW0 582-685): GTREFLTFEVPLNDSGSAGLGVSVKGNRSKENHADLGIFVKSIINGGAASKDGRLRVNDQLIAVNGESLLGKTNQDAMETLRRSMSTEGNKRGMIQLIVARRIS
Design: key: below the threshold = too weak to quantify, mostly under pKd 3.1 to 4
B1 was tested, and the pKd was “below the threshold”.
In the case of B2, the pKd is reported as “below the threshold”.
For B3, the pKd was “below the threshold”.

What follows are binders tested against PTPN3, P26045 (assay: holdup assay). Settings: plain residues with an end cap or a label only (N-terminal biotin on a linker: ttds).
Chain of PTPN3, P26045 (P26045 505-587): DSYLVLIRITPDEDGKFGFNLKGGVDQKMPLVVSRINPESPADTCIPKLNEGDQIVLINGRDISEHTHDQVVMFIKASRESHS
Design: key: below the threshold = too weak to quantify, mostly under pKd 3.1 to 4
In the case of B1, the pKd is reported as “below the threshold”.
B2 gave a pKd of 4.4.
For B3, the pKd was 4.93.

These binders were tested against TJP1_2, Q07157 (assay: holdup assay). Settings: plain residues with an end cap or a label only (N-terminal biotin on a linker: ttds).
Chain of TJP1_2, Q07157 (Q07157 181-274): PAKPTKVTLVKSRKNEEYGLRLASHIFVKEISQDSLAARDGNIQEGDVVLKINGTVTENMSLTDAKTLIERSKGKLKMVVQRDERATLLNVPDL
Design: key: below the threshold = too weak to quantify, mostly under pKd 3.1 to 4
For B1, the pKd was “below the threshold”.
In the case of B2, the pKd is reported as “below the threshold”.
In the case of B3, the pKd is reported as “below the threshold”.

Each binder was assayed against T2, DLG3_3, Q92796 (assay: holdup assay). Settings: plain residues with an end cap or a label only (N-terminal biotin on a linker: ttds).
T2 sequence (Q92796 374-475, limits assumed, looked up): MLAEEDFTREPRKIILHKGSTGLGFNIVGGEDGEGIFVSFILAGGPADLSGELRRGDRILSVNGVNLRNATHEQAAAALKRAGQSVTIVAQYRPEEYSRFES
Design: key: below the threshold = too weak to quantify, mostly under pKd 3.1 to 4
For B1, the pKd was “below the threshold”.
Binder B2 has a pKd of 4.51.
Work on B3 yielded a pKd of 5.18.

What follows are binders tested against T3, GRIP1_2, Q9Y3R0 (assay: holdup assay). Settings: plain residues with an end cap or a label only (N-terminal biotin on a linker: ttds).
T3 sequence (Q9Y3R0 145-248, limits assumed, looked up): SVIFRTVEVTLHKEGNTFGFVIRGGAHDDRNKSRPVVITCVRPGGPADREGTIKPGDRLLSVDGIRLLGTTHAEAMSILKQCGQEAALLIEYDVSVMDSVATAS
Design: key: below the threshold = too weak to quantify, mostly under pKd 3.1 to 4
With B1 the pKd was “below the threshold”.
For B2, the pKd was “below the threshold”.
With B3 the pKd was “below the threshold”.

The binders below were run against T4, SNTG2, Q9NY99 (assay: holdup assay). Settings: plain residues with an end cap or a label only (N-terminal biotin on a linker: ttds).
T4 sequence (Q9NY99 68-166, limits assumed, looked up): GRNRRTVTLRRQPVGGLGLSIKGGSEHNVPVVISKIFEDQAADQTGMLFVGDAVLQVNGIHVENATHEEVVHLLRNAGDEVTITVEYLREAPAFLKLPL
Design: key: below the threshold = too weak to quantify, mostly under pKd 3.1 to 4
In the case of B1, the pKd is reported as “below the threshold”.
Binder B2 has a pKd of 4.05.
For B3, the pKd was 3.95.

The binders below were run against MAST1, Q9Y2H9 (assay: holdup assay). Settings: plain residues with an end cap or a label only (N-terminal biotin on a linker: ttds).
Chain of MAST1, Q9Y2H9 (Q9Y2H9 962-1065): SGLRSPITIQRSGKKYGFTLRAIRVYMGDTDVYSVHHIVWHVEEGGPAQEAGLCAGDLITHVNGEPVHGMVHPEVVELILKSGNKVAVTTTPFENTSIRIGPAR
Design: key: below the threshold = too weak to quantify, mostly under pKd 3.1 to 4
B1 gave a pKd of 3.71.
With B2 the pKd was 4.62.
B3 was tested, and the pKd was “below the threshold”.

These binders were tested against PDLIM1, O00151 (assay: holdup assay). Settings: plain residues with an end cap or a label only (N-terminal biotin on a linker: ttds).
Chain of PDLIM1, O00151 (O00151 1-87): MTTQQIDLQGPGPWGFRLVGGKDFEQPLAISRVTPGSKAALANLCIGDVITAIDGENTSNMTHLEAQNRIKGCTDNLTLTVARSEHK
Design: key: below the threshold = too weak to quantify, mostly under pKd 3.1 to 4
In the case of B1, the pKd is reported as “below the threshold”.
For B2, the pKd was “below the threshold”.
B3 was tested, and the pKd was “below the threshold”.

Each binder was assayed against SNX27, Q96L92 (assay: holdup assay). Settings: plain residues with an end cap or a label only (N-terminal biotin on a linker: ttds).
Design: key: below the threshold = too weak to quantify, mostly under pKd 3.1 to 4
For B1, the pKd was “below the threshold”.
B2 gave a pKd of 4.64.
B3 gave a pKd of 4.66.

Each binder was assayed against NHERF4_1, Q86UT5-2 (assay: holdup assay). Settings: plain residues with an end cap or a label only (N-terminal biotin on a linker: ttds).
Chain of NHERF4_1, Q86UT5-2 (Q86UT5 other isoform, or with tags, fused parts or gaps): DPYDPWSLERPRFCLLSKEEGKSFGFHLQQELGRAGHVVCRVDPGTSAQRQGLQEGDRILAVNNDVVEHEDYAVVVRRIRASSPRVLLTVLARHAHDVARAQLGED
Design: key: below the threshold = too weak to quantify, mostly under pKd 3.1 to 4
For B1, the pKd was “below the threshold”.
In the case of B2, the pKd is reported as “below the threshold”.
For B3, the pKd was “below the threshold”.

These binders were tested against SCRIB_2, Q14160 (assay: holdup assay). Settings: plain residues with an end cap or a label only (N-terminal biotin on a linker: ttds).
Chain of SCRIB_2, Q14160 (Q14160 857-960): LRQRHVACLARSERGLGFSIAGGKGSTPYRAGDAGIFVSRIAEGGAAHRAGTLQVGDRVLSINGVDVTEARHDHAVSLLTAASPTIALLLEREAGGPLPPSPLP
Design: key: below the threshold = too weak to quantify, mostly under pKd 3.1 to 4
For B1, the pKd was “below the threshold”.
In the case of B2, the pKd is reported as 4.18.
B3 showed a pKd of 4.7.

What follows are binders tested against AHNAK1, Q09666 (assay: holdup assay). Settings: plain residues with an end cap or a label only (N-terminal biotin on a linker: ttds).
Chain of AHNAK1, Q09666 (Q09666 4-100): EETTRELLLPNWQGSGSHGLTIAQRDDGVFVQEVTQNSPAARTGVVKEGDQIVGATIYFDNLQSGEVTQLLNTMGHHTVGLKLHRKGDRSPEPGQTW
Design: key: below the threshold = too weak to quantify, mostly under pKd 3.1 to 4
For B1, the pKd was “below the threshold”.
B2 was tested, and the pKd was “below the threshold”.
For B3, the pKd was “below the threshold”.

These binders were tested against LNX1_1, Q8TBB1 (assay: holdup assay). Settings: plain residues with an end cap or a label only (N-terminal biotin on a linker: ttds).
Chain of LNX1_1, Q8TBB1 (Q8TBB1 261-371): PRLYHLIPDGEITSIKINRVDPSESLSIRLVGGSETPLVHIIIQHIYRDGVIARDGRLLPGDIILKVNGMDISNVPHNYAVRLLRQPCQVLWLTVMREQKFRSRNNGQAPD
Design: key: below the threshold = too weak to quantify, mostly under pKd 3.1 to 4
For B1, the pKd was “below the threshold”.
B2 was tested, and the pKd was “below the threshold”.
With B3 the pKd was “below the threshold”.

The binders below were run against T5, LIN7B, Q9HAP6 (assay: holdup assay). Settings: plain residues with an end cap or a label only (N-terminal biotin on a linker: ttds).
T5 sequence (Q9HAP6 88-185, limits assumed, looked up): T1 sequence (Q9NUP9 88-185, limits assumed, looked up) with S2A, E13D, I35V, I40V, H65Q, K79S, K89R, S96A
Design: key: below the threshold = too weak to quantify, mostly under pKd 3.1 to 4
In the case of B1, the pKd is reported as “below the threshold”.
In the case of B2, the pKd is reported as “below the threshold”.
With B3 the pKd was 3.49.

Each binder was assayed against MAGI2_3, Q86UL8 (assay: holdup assay). Settings: plain residues with an end cap or a label only (N-terminal biotin on a linker: ttds).
Chain of MAGI2_3, Q86UL8 (Q86UL8 600-682): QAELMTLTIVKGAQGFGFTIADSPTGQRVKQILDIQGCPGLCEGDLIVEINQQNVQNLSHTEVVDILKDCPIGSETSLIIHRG
Design: key: below the threshold = too weak to quantify, mostly under pKd 3.1 to 4
With B1 the pKd was “below the threshold”.
B2 was tested, and the pKd was 4.73.
B3 was tested, and the pKd was “below the threshold”.

What follows are binders tested against SCRIB_1, Q14160 (assay: holdup assay). Settings: plain residues with an end cap or a label only (N-terminal biotin on a linker: ttds).
Chain of SCRIB_1, Q14160 (Q14160 718-814): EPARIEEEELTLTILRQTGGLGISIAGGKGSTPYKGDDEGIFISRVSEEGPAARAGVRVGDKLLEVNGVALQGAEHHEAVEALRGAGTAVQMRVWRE
Design: key: below the threshold = too weak to quantify, mostly under pKd 3.1 to 4
B1 was tested, and the pKd was “below the threshold”.
For B2, the pKd was 3.82.
For B3, the pKd was 4.56.

What follows are binders tested against SCRIB_3, Q14160 (assay: holdup assay). Settings: plain residues with an end cap or a label only (N-terminal biotin on a linker: ttds).
Chain of SCRIB_3, Q14160 (Q14160 999-1103): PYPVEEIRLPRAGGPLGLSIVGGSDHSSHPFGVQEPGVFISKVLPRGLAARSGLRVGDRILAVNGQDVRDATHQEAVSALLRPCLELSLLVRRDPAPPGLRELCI
Design: key: below the threshold = too weak to quantify, mostly under pKd 3.1 to 4
B1 was tested, and the pKd was “below the threshold”.
Binder B2 has a pKd of 3.86.
B3 showed a pKd of 4.89.

The binders below were run against ARHGEF12, Q9NZN5-2 (assay: holdup assay). Settings: plain residues with an end cap or a label only (N-terminal biotin on a linker: ttds).
Chain of ARHGEF12, Q9NZN5-2 (Q9NZN5 other isoform, or with tags, fused parts or gaps): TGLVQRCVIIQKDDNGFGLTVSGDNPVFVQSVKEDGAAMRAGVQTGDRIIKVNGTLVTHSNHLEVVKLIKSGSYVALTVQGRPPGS
Design: key: below the threshold = too weak to quantify, mostly under pKd 3.1 to 4
In the case of B1, the pKd is reported as 3.54.
For B2, the pKd was “below the threshold”.
In the case of B3, the pKd is reported as 4.06.

These binders were tested against MAGI3_2, Q5TCQ9 (assay: holdup assay). Settings: plain residues with an end cap or a label only (N-terminal biotin on a linker: ttds).
Chain of MAGI3_2, Q5TCQ9 (Q5TCQ9 398-503): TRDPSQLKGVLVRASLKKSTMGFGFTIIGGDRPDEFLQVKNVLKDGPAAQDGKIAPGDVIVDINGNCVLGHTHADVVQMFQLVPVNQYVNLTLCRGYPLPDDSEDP
Design: key: below the threshold = too weak to quantify, mostly under pKd 3.1 to 4
B1 was tested, and the pKd was 4.07.
B2 was tested, and the pKd was 6.07.
Work on B3 yielded a pKd of 5.39.

What follows are binders tested against Inadl_8, Q8NI35 (assay: holdup assay). Settings: plain residues with an end cap or a label only (N-terminal biotin on a linker: ttds).
Chain of Inadl_8, Q8NI35 (Q8NI35 1425-1530): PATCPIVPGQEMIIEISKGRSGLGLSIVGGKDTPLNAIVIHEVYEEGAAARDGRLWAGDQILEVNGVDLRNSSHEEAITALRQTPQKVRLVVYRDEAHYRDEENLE
Design: key: below the threshold = too weak to quantify, mostly under pKd 3.1 to 4
Work on B1 yielded a pKd of 4.35.
In the case of B2, the pKd is reported as “below the threshold”.
With B3 the pKd was “below the threshold”.

The binders below were run against CASK, O14936 (assay: holdup assay). Settings: plain residues with an end cap or a label only (N-terminal biotin on a linker: ttds).
Chain of CASK, O14936 (O14936 487-570): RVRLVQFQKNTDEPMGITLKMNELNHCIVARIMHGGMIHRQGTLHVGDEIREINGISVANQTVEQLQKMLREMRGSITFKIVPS
Design: key: below the threshold = too weak to quantify, mostly under pKd 3.1 to 4
In the case of B1, the pKd is reported as “below the threshold”.
In the case of B2, the pKd is reported as “below the threshold”.
With B3 the pKd was “below the threshold”.

The binders below were run against T6, APBA1_1, Q02410 (assay: holdup assay). Settings: plain residues with an end cap or a label only (N-terminal biotin on a linker: ttds).
T6 sequence (Q02410 651-752, limits assumed, looked up): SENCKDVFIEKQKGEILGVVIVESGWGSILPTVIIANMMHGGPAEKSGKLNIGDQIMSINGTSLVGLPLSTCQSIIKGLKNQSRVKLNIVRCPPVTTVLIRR
Design: key: below the threshold = too weak to quantify, mostly under pKd 3.1 to 4
With B1 the pKd was “below the threshold”.
In the case of B2, the pKd is reported as “below the threshold”.
With B3 the pKd was “below the threshold”.

The binders below were run against T7, GRIP1_7, Q9Y3R0 (assay: holdup assay). Settings: plain residues with an end cap or a label only (N-terminal biotin on a linker: ttds).
T7 sequence (Q9Y3R0 999-1096, limits assumed, looked up): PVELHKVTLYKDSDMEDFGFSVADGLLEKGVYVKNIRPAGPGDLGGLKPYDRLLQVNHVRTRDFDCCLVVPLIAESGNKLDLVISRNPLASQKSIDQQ
Design: key: below the threshold = too weak to quantify, mostly under pKd 3.1 to 4
In the case of B1, the pKd is reported as “below the threshold”.
In the case of B2, the pKd is reported as “below the threshold”.
For B3, the pKd was “below the threshold”.

Each binder was assayed against Inadl_1, Q8NI35 (assay: holdup assay). Settings: plain residues with an end cap or a label only (N-terminal biotin on a linker: ttds).
Chain of Inadl_1, Q8NI35 (Q8NI35 113-229): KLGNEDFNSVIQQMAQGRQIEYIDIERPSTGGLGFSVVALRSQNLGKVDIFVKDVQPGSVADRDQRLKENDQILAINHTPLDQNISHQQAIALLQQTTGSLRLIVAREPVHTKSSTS
Design: key: below the threshold = too weak to quantify, mostly under pKd 3.1 to 4
For B1, the pKd was 3.66.
B2 was tested, and the pKd was “below the threshold”.
In the case of B3, the pKd is reported as “below the threshold”.

The binders below were run against T8, TJP3_3, O95049 (assay: holdup assay). Settings: plain residues with an end cap or a label only (N-terminal biotin on a linker: ttds).
T8 sequence (O95049 375-456, limits assumed, looked up): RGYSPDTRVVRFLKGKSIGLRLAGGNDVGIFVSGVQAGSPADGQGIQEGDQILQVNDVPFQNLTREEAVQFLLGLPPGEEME
Design: key: below the threshold = too weak to quantify, mostly under pKd 3.1 to 4
With B1 the pKd was “below the threshold”.
Binder B2 has a pKd of 3.7.
B3 was tested, and the pKd was “below the threshold”.

These binders were tested against MAGI2_5, Q86UL8 (assay: holdup assay). Settings: plain residues with an end cap or a label only (N-terminal biotin on a linker: ttds).
Chain of MAGI2_5, Q86UL8 (Q86UL8 915-1017): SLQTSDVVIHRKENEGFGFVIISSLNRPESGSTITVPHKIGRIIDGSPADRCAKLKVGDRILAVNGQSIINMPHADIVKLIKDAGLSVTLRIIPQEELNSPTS
Design: key: below the threshold = too weak to quantify, mostly under pKd 3.1 to 4
With B1 the pKd was “below the threshold”.
Work on B2 yielded a pKd of 5.02.
B3 was tested, and the pKd was 4.18.

Each binder was assayed against HTRA2, O43464 (assay: holdup assay). Settings: plain residues with an end cap or a label only (N-terminal biotin on a linker: ttds).
Chain of HTRA2, O43464 (O43464 355-458): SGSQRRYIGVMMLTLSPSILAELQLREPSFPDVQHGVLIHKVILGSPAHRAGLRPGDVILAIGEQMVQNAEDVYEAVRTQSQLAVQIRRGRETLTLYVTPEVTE
Design: key: below the threshold = too weak to quantify, mostly under pKd 3.1 to 4
B1 was tested, and the pKd was “below the threshold”.
With B2 the pKd was “below the threshold”.
With B3 the pKd was “below the threshold”.
